{
  "source": "patent US7015022B2",
  "about": "“Mammalian catalase-dependent oxidation processes and methods for stimulating oxidative activities” (University of Medicine & Dentistry of New Jersey, priority 2002, dated 2006)",
  "substrate": "CC(=O)N1c2ccc(O)cc2Oc2cc(O)ccc21",
  "assay": "Catalase-dependent oxidation of AMPLEX-RED to resorufin in the absence of hydrogen peroxide (Lineweaver-Burke enzyme kinetics)",
  "format": "biochemical, bovine",
  "details": "other: Lineweaver-Burke analysis, catalase 1 mg/ml, 50 mM phosphate buffer pH 7.4, room temperature, no hydrogen peroxide",
  "protocol": "Reactions were carried out in buffer consisting of 50 mM phosphate buffer, pH 7.4 and 1.0 mg/ml of the catalase at room temperature (22° C.) in a reaction volume of 0.1 ml. […] Standard reaction mixtures contain 20 nmoles of the substrate. Detection of the fluorescent product resorufin was measured using an HTS 7000 Plus Bio Assay Reader (Perkin Elmer, Beaconsfield, Buckinghamsire, UK) using a 540 nm excitation filter and a 595 nm emission filter.",
  "data": [
    {"protein": "mammalian catalase (Bos taurus) (protein, purified catalases obtained from a variety of sources including enzyme from mouse and bovine liver; purchased Sigma Chemical Co., St. Louis, Mo; host or cells: liver tissue (mouse and bovine named)) ADNRDPASDQMKHWKEQRAAQKPDVLTTGGGNPVGDKLNSLTVGPRGPLLVQDVVFTDEMAHFDRERIPERVVHAKGAGAFGYFEVTHDITRYSKAKVFEHIGKRTPIAVRFSTVAGESGSADTVRDPRGFAVKFYTEDGNWDLVGNNTPIFFIRDALLFPSFIHSQKRNPQTHLKDPDMVWDFWSLRPESLHQVSFLFSDRGIPDGHRHMNGYGSHTFKLVNANGEAVYCKFHYKTDQGIKNLSVEDAARLAHEDPDYGLRDLFNAIATGNYPSWTLYIQVMTFSEAEIFPFNPFDLTKVWPHGDYPLIPVGKLVLNRNPVNYFAEVEQLAFDPSNMPPGIEPSPDKMLQGRLFAYPDTHRHRLGPNYLQIPVNCPYRARVANYQRDGPMCMMDNQGGAPNYYPNSFSAPEHQPSALEHRTHFSGDVQRFNSANDDNVTQVRTFYLKVLNEEQRKRLCENIAGHLKDAQLFIQKKAVKNFSDVHPEYGSRIQALLDKYNEEKPKNAVHTYVQHGSHLSAREKANL", "values": [
      {"measurement": "Km", "result": 244, "unit": "µM"},
      {"measurement": "Vmax", "result": "4.74e-05", "unit": "M/s"}
    ]}
  ]
}
